According to US20240043505A1:
Where two headings read alike, the source gives them in different places.

B1: Nb21 (VHH)
VHH: QVQLVESGGGLVQAGGSLRLSCAVSGLGAHRVGWFRRAPGKEREFVAAIGANGGNTNYLDSVKGRFTISRDNAKNTIYLQMNSLKPQDTAVYYCAARDIETAEYTYWGQGTQVTVSS
B2: Nb17 (VHH)
VHH: HVQLVESGGGLVQAGGSLRLSCAASGSIFSSNAMSWYRQAPGKQRELVASITSGGNADYADSVKGRFTISRDKNTVYPEMSSLKPADTAVYYCHAVGQEASAYAPRAYWGQGTQVTVSS

Tests used:
Details in all cases: remark: other sources report otherwise
[1] = biological target: T1, SARS-CoV-2 spike receptor-binding domain (RBD) (SARS-CoV-2), P0DTC2
N501Y = biological target: N501Y
N439K = biological target: N439K
A475V = biological target: A475V
K417N = biological target: K417N
Y453F = biological target: Y453F
[2] = biological target: T1, SARS-CoV-2 spike receptor-binding …; experiment: SPR (Biacore 3000), RBD immobilised
[3] = biological target: T1, SARS-CoV-2 spike receptor-binding …; experiment: indirect ELISA on coated RBD ('ELISA affinity')
[4] = biological target: T1, SARS-CoV-2 spike receptor-binding …; remark: listed apart in the source
[5] = biological target: T1, SARS-CoV-2 spike receptor-binding …; experiment: ELISA; the sheet does not name the coated protein, the legend paragraph 51 says RBD
[6] = biological target: T1, SARS-CoV-2 spike receptor-binding …; remark: listed apart in the source

Binder	IC50 [1] [pM]	binding affinity fold change relative to RBD WT (N501Y) [fold]	binding affinity fold change relative to RBD WT (N439K) [fold]	binding affinity fold change relative to RBD WT (A475V) [fold]	binding affinity fold change relative to RBD WT (K417N) [fold]	binding affinity fold change relative to RBD WT (Y453F) [fold]	Kd [2] [pM]	koff [2] [s⁻¹]	kon [2] [M⁻¹ s⁻¹]	IC50 [3] [pM]	EC50 (read off the curve) [4] [pM]	EC50 (read off the curve) [5] [pM]	EC50 (read off the curve) [6] [pM]
B1	420	-2.83	1.18	-1.31	-1.43	1.04	< 1	< 1e-06	3.79e+06	300	1000	5000	–
B2	690	1.5	1.33	1.16	-1.2	1.61	–	–	–	450	–	–	1000
